Our source for the IC50 and Kd values is the Immune Epitope Database (IEDB).

Common to all, as to conditions: source organism: Vaccinia virus WR
Assay [1] concerns the target HLA-A*11:01. The assay is described as follows: IEDB peptide-MHC binding, purified MHC/competitive/radioactivity; ≥ and ≤ were set here for values at or beyond the usual limits of such assays.
Assay [2] deals with HLA-A*03:01. Description: IEDB peptide-MHC binding, purified MHC/competitive/radioactivity; filed as Kd, often an IC50 or EC50 that approximates it; ≥ and ≤ were set here for values at or beyond the usual limits of such assays.
Assay [3] concerns the target HLA-A*31:01. The description is as above.
Assay [4] addresses HLA-A*33:01. The description is as above.
In another assay the target is HLA-A*68:01. Described as above.
In assay [5] the target is HLA-A*03:01. The assay is described as follows: IEDB peptide-MHC binding, purified MHC/competitive/radioactivity; ≥ and ≤ were set here for values at or beyond the usual limits of such assays.
Assay [6] concerns the target HLA-A*11:01. The assay is described as follows: IEDB peptide-MHC binding, purified MHC/competitive/radioactivity; filed as Kd, often an IC50 or EC50 that approximates it; ≥ and ≤ were set here for values at or beyond the usual limits of such assays.
The target of assay [7] is HLA-B*18:01. Description: IEDB peptide-MHC binding, purified MHC/competitive/radioactivity; ≥ and ≤ were set here for values at or beyond the usual limits of such assays.
Assay [8] has as its target HLA-B*40:01. Description: IEDB peptide-MHC binding, purified MHC/competitive/radioactivity; filed as Kd, often an IC50 or EC50 that approximates it; ≥ and ≤ were set here for values at or beyond the usual limits of such assays.
The target in assay [9] is HLA-B*40:02. The assay is described as above.
A further assay deals with HLA-B*44:02. Described as above.
Another assay deals with HLA-B*44:03. The assay is described as above.
The next assay has as its target HLA-B*45:01. Described as above.
The target in a further assay is HLA-A*02:01. Description: IEDB peptide-MHC binding, purified MHC/competitive/radioactivity; ≥ and ≤ were set here for values at or beyond the usual limits of such assays.
In the next assay the target is HLA-A*02:06. The assay is described as follows: IEDB peptide-MHC binding, purified MHC/competitive/radioactivity; filed as Kd, often an IC50 or EC50 that approximates it; ≥ and ≤ were set here for values at or beyond the usual limits of such assays.
In another assay the target is HLA-B*07:02. The assay is described as follows: IEDB peptide-MHC binding, purified MHC/competitive/radioactivity; ≥ and ≤ were set here for values at or beyond the usual limits of such assays.
In the next assay the target is HLA-B*35:01. The description is as above.
A further assay has as its target HLA-B*51:01. The description is as above.
The target of another assay is HLA-B*53:01. The description is as above.
The next assay concerns the target HLA-B*54:01. The description is as above.
In assay [10] the target is HLA-B*40:01. The description is as above.
The target in assay [11] is HLA-B*40:02. The assay is described as above.
Assay [12] concerns the target HLA-B*18:01. The assay is described as follows: IEDB peptide-MHC binding, purified MHC/competitive/radioactivity; filed as Kd, often an IC50 or EC50 that approximates it; ≥ and ≤ were set here for values at or beyond the usual limits of such assays.
Assay [13] has as its target HLA-A*31:01. Description: IEDB peptide-MHC binding, purified MHC/competitive/radioactivity; ≥ and ≤ were set here for values at or beyond the usual limits of such assays.
The target in assay [14] is HLA-A*33:01. The assay is described as above.

As to ATSLDVINY, in the assay with HLA-A*11:01 [1], the IC50 was 6.8 nM. In addition, the Kd in the assay with HLA-A*03:01 [2] was 625 nM; with HLA-A*31:01 [3] it was 10.3 µM; in the assay with HLA-A*33:01 [4], at least 50 µM; with HLA-A*68:01 it was at least 50 µM.
Take AVKDVTITKK: the IC50 with HLA-A*03:01 [5] stood at 84 nM. Further, the Kd with HLA-A*11:01 [6] was 519 nM; in the assay with HLA-A*31:01 [3], 0.605 µM; with HLA-A*33:01 [4], at least 50 µM; with HLA-A*68:01 it was 1.62 µM.
As to DELVDPINY, in the assay with HLA-B*18:01 [7], the IC50 was 16 nM. The Kd with HLA-B*40:01 [8] worked out at 529 nM; with HLA-B*40:02 [9], 13.3 µM; with HLA-B*44:02, 14.3 µM; with HLA-B*44:03 it was 2670 nM; with HLA-B*45:01, 12.4 µM.
As to FLVIAINAM, the IC50 with HLA-A*02:01 was found to be 435 nM. In addition, the Kd with HLA-A*02:06 is 930 nM.
Take MPAYIRNTL: the IC50 with HLA-B*07:02 was 0.53 nM; with HLA-B*35:01 it was 19 nM; in the assay with HLA-B*51:01 it was 461 nM; with HLA-B*53:01, 49 nM; with HLA-B*54:01, 3.4 nM.
As to TEYDDHINL, the IC50 with HLA-B*40:01 [10] amounted to 7.5 nM; with HLA-B*40:02 [11], 108 nM. The Kd worked out at 645 nM in the assay with HLA-B*18:01 [12], 0.913 µM in the assay with HLA-B*44:02, 1200 nM with HLA-B*44:03 and 7.79 µM with HLA-B*45:01.
Regarding YLLVKWYRK, the IC50 stood at 5.6 nM with HLA-A*03:01 [5], 3.6 nM with HLA-A*11:01 [1], 45 nM in the assay with HLA-A*31:01 [13] and 114 nM with HLA-A*33:01 [14]. The Kd with HLA-A*68:01 was at least 50 µM.
